The test system of the series is Escherichia coli TOP10. Put plainly: shrunken log2 fold change of peptide-encoding DNA abundance (4.5 h post-induction vs induction); higher = less antimicrobial activity (less host growth inhibition). As to conditions: time post-induction: 4.5 h; library: site-saturation at positions 5, 18, 19, 20.
Consider RRIRLRPPRLPRPRPRPFAGPRP, for which the “shrunken log2 fold change” value amounted to 0.024.
RRIRMRPPRLPRPRPRPERTPRP: the “shrunken log2 fold change” value came out at 0.00114.
As for RRIRFRPPRLPRPRPRPGILPRP, the figure is -0.187.
With RRIRYRPPRLPRPRPRPQRRPRP, the “shrunken log2 fold change” value was -0.261.
On to RRIRQRPPRLPRPRPRPSYAPRP, for which the “shrunken log2 fold change” value is 0.0242.
For the sequence RRIRTRPPRLPRPRPRPWVVPRP, the “shrunken log2 fold change” value is -0.0414.
As for RRIRGRPPRLPRPRPRPHNEPRP, the “shrunken log2 fold change” value was 0.264.
As for RRIRFRPPRLPRPRPRPNDPPRP, the figure is -0.226.
As for RRIRPRPPRLPRPRPRPFCSPRP, the “shrunken log2 fold change” value is -0.186.
For RRIRIRPPRLPRPRPRPHDRPRP, the “shrunken log2 fold change” value was -0.289.
Take RRIRDRPPRLPRPRPRPVCEPRP: the “shrunken log2 fold change” value was found to be 1.18.
Consider RRIRRRPPRLPRPRPRPWICPRP, for which the “shrunken log2 fold change” value is -0.0987.
Under RRIRARPPRLPRPRPRPTWFPRP stands 0.225; under RRIRERPPRLPRPRPRPTGNPRP, -0.267; under RRIRMRPPRLPRPRPRPGLIPRP, 0.133.
For RRIRPRPPRLPRPRPRPRISPRP, the “shrunken log2 fold change” value was -0.145.
For the sequence RRIRDRPPRLPRPRPRPTNKPRP, the “shrunken log2 fold change” value was -0.0409.
In the case of RRIRKRPPRLPRPRPRPVAHPRP, the “shrunken log2 fold change” value is 0.353.
In the case of RRIRVRPPRLPRPRPRPCYTPRP, the “shrunken log2 fold change” value is -0.498.
RRIRDRPPRLPRPRPRPSQAPRP: the “shrunken log2 fold change” value turned out to be 0.136.
In the case of RRIRLRPPRLPRPRPRPKGLPRP, the “shrunken log2 fold change” value is -0.0393.
Turning to RRIRPRPPRLPRPRPRPYANPRP, the “shrunken log2 fold change” value was -0.231.
Regarding RRIRNRPPRLPRPRPRPFTAPRP, the “shrunken log2 fold change” value worked out at 0.613.
Turning to RRIRERPPRLPRPRPRPVWYPRP, the “shrunken log2 fold change” value was -0.383.
For RRIRHRPPRLPRPRPRPGARPRP, the “shrunken log2 fold change” value was found to be 0.335.
In the case of RRIRHRPPRLPRPRPRPCSDPRP, the “shrunken log2 fold change” value was -0.101.
For RRIRDRPPRLPRPRPRPRGVPRP, the “shrunken log2 fold change” value worked out at 0.393.
With RRIRARPPRLPRPRPRPSICPRP, the “shrunken log2 fold change” value is 0.154.
For the sequence RRIRLRPPRLPRPRPRPSFKPRP, the “shrunken log2 fold change” value is -0.572.
Turning to RRIRNRPPRLPRPRPRPKNWPRP, the “shrunken log2 fold change” value came to 0.168.
On to RRIRKRPPRLPRPRPRPNGLPRP, for which the “shrunken log2 fold change” value is -0.0579.
As for RRIRGRPPRLPRPRPRPPSHPRP, the figure is 0.597; as for RRIRSRPPRLPRPRPRPYGFPRP, -0.85; as for RRIRNRPPRLPRPRPRPPDWPRP, 0.641.
For the sequence RRIRFRPPRLPRPRPRPGYYPRP, the “shrunken log2 fold change” value is -0.195.
As to RRIRPRPPRLPRPRPRPAFHPRP, the “shrunken log2 fold change” value came out at 0.189.
As to RRIRLRPPRLPRPRPRPTFFPRP, the “shrunken log2 fold change” value stood at 0.14.
For RRIRTRPPRLPRPRPRPFAEPRP, the “shrunken log2 fold change” value worked out at 0.0116.
With RRIRFRPPRLPRPRPRPGSDPRP, the “shrunken log2 fold change” value is -0.111.
For the sequence RRIRIRPPRLPRPRPRPTTCPRP, the “shrunken log2 fold change” value was -0.447.
Under RRIRKRPPRLPRPRPRPPNDPRP stands 0.426.
Take RRIRRRPPRLPRPRPRPDVYPRP: the “shrunken log2 fold change” value is -0.0445.
Under RRIRHRPPRLPRPRPRPRLHPRP stands 0.0986; under RRIRQRPPRLPRPRPRPLVRPRP, 0.0989; under RRIRHRPPRLPRPRPRPQHLPRP, -0.358.
For the sequence RRIRARPPRLPRPRPRPDGDPRP, the “shrunken log2 fold change” value was -0.036.
With RRIRMRPPRLPRPRPRPQQRPRP, the “shrunken log2 fold change” value amounted to 0.586.
For RRIRVRPPRLPRPRPRPDWVPRP, the “shrunken log2 fold change” value was -0.0925.
As for RRIRMRPPRLPRPRPRPEETPRP, the “shrunken log2 fold change” value was 0.0205.
For RRIRPRPPRLPRPRPRPGCVPRP, the “shrunken log2 fold change” value came out at 0.447.
Regarding RRIRTRPPRLPRPRPRPEGHPRP, the “shrunken log2 fold change” value was 0.0274.
As for RRIRERPPRLPRPRPRPCTAPRP, the “shrunken log2 fold change” value was -0.337.
In the case of RRIRRRPPRLPRPRPRPIEHPRP, the “shrunken log2 fold change” value is -0.00775.
With RRIRKRPPRLPRPRPRPKNMPRP, the “shrunken log2 fold change” value was -0.129.
As to RRIRGRPPRLPRPRPRPKARPRP, the “shrunken log2 fold change” value was found to be 0.208.
Under RRIRMRPPRLPRPRPRPRLFPRP stands 0.998.
As for RRIRCRPPRLPRPRPRPMTGPRP, the “shrunken log2 fold change” value was -0.103.
Under RRIRYRPPRLPRPRPRPHSWPRP stands -0.69; under RRIRQRPPRLPRPRPRPDKYPRP, -0.0227; under RRIRARPPRLPRPRPRPHAQPRP, 0.122.
Consider RRIRSRPPRLPRPRPRPKWYPRP, for which the “shrunken log2 fold change” value was -0.336.
RRIRARPPRLPRPRPRPQHLPRP: the “shrunken log2 fold change” value was -0.0998.
As for RRIRCRPPRLPRPRPRPCMYPRP, the figure is -0.0898; as for RRIRERPPRLPRPRPRPSLQPRP, 0.175; as for RRIRGRPPRLPRPRPRPYNHPRP, -0.983.
Consider RRIRKRPPRLPRPRPRPPRWPRP, for which the “shrunken log2 fold change” value was found to be 1.07.
With RRIRWRPPRLPRPRPRPLLAPRP, the “shrunken log2 fold change” value stood at 1.03.
As for RRIRNRPPRLPRPRPRPHYYPRP, the “shrunken log2 fold change” value was -0.356.
With RRIRGRPPRLPRPRPRPMMYPRP, the “shrunken log2 fold change” value was 0.163.
On to RRIRPRPPRLPRPRPRPQYIPRP, for which the “shrunken log2 fold change” value is -0.457.
Turning to RRIRARPPRLPRPRPRPLLNPRP, the “shrunken log2 fold change” value was determined as 0.373.
RRIRHRPPRLPRPRPRPPAQPRP: the “shrunken log2 fold change” value turned out to be 0.633.
For RRIRKRPPRLPRPRPRPMIPPRP, the “shrunken log2 fold change” value stood at 0.0969.
As for RRIRKRPPRLPRPRPRPEMYPRP, the “shrunken log2 fold change” value worked out at 0.214.
Regarding RRIRPRPPRLPRPRPRPAKLPRP, the “shrunken log2 fold change” value was 0.0398.
Under RRIRIRPPRLPRPRPRPVDFPRP stands -0.133; under RRIRWRPPRLPRPRPRPPWSPRP, 0.378.
Under RRIRLRPPRLPRPRPRPLWNPRP stands -0.228; under RRIRLRPPRLPRPRPRPTWFPRP, 0.0207; under RRIRMRPPRLPRPRPRPDFEPRP, 0.589.
Take RRIRQRPPRLPRPRPRPIVDPRP: the “shrunken log2 fold change” value was 0.0252.
Take RRIRCRPPRLPRPRPRPLGKPRP: the “shrunken log2 fold change” value was -0.101.
For RRIRNRPPRLPRPRPRPAVNPRP, the “shrunken log2 fold change” value is -0.169.
Take RRIRDRPPRLPRPRPRPRNSPRP: the “shrunken log2 fold change” value is -0.394.
Consider RRIRERPPRLPRPRPRPFMRPRP, for which the “shrunken log2 fold change” value was found to be 0.154.
Under RRIRVRPPRLPRPRPRPVINPRP stands -0.712; under RRIRVRPPRLPRPRPRPMDPPRP, -0.56.
Consider RRIRRRPPRLPRPRPRPGKAPRP, for which the “shrunken log2 fold change” value is 0.112.
As to RRIRMRPPRLPRPRPRPMGHPRP, the “shrunken log2 fold change” value was -0.032.
Consider RRIRERPPRLPRPRPRPKCLPRP, for which the “shrunken log2 fold change” value is -0.0209.
As to RRIRCRPPRLPRPRPRPFASPRP, the “shrunken log2 fold change” value turned out to be 0.0328.
For RRIRWRPPRLPRPRPRPDHPPRP, the “shrunken log2 fold change” value was -0.0785.
RRIRWRPPRLPRPRPRPKICPRP: the “shrunken log2 fold change” value came out at 0.357.
In the case of RRIRPRPPRLPRPRPRPGGGPRP, the “shrunken log2 fold change” value was found to be 0.728.
Under RRIRVRPPRLPRPRPRPRNTPRP stands -0.365; under RRIRCRPPRLPRPRPRPEVEPRP, 0.254; under RRIRDRPPRLPRPRPRPYSCPRP, 0.0113.
Under RRIRRRPPRLPRPRPRPVTPPRP stands 0.705.
On to RRIRSRPPRLPRPRPRPQWAPRP, for which the “shrunken log2 fold change” value is 0.0253.
As for RRIRFRPPRLPRPRPRPAMFPRP, the “shrunken log2 fold change” value was -0.292.
With RRIRPRPPRLPRPRPRPPCVPRP, the “shrunken log2 fold change” value came to 0.128.
As for RRIRDRPPRLPRPRPRPVITPRP, the “shrunken log2 fold change” value worked out at 0.0916.
RRIRDRPPRLPRPRPRPYWVPRP: the “shrunken log2 fold change” value was -0.129.
For RRIRCRPPRLPRPRPRPVDQPRP, the “shrunken log2 fold change” value is -0.304.
As for RRIRARPPRLPRPRPRPHNMPRP, the figure is -0.446; as for RRIRQRPPRLPRPRPRPRMVPRP, 0.166.
For RRIRFRPPRLPRPRPRPFIGPRP, the “shrunken log2 fold change” value is -0.362.
Turning to RRIRKRPPRLPRPRPRPKDLPRP, the “shrunken log2 fold change” value was determined as 0.0142.
With RRIRVRPPRLPRPRPRPASGPRP, the “shrunken log2 fold change” value is -0.188.
As to RRIRERPPRLPRPRPRPAGWPRP, the “shrunken log2 fold change” value was 0.555.
In the case of RRIRLRPPRLPRPRPRPVGYPRP, the “shrunken log2 fold change” value is -0.0152.
As for RRIRGRPPRLPRPRPRPGCPPRP, the “shrunken log2 fold change” value was found to be 0.806.
For RRIRQRPPRLPRPRPRPHLVPRP, the “shrunken log2 fold change” value came out at 0.00244.
Turning to RRIRSRPPRLPRPRPRPHAKPRP, the “shrunken log2 fold change” value was -0.288.
Consider RRIRGRPPRLPRPRPRPIGFPRP, for which the “shrunken log2 fold change” value was 0.061.
With RRIRARPPRLPRPRPRPCGKPRP, the “shrunken log2 fold change” value turned out to be 0.659.
Regarding RRIRMRPPRLPRPRPRPQWPPRP, the “shrunken log2 fold change” value was -0.132.
Turning to RRIRNRPPRLPRPRPRPHAHPRP, the “shrunken log2 fold change” value was -0.0247.
For RRIRYRPPRLPRPRPRPFSGPRP, the “shrunken log2 fold change” value turned out to be 0.0211.
For the sequence RRIRERPPRLPRPRPRPFVNPRP, the “shrunken log2 fold change” value was -0.561.
As for RRIRGRPPRLPRPRPRPIDGPRP, the figure is 0.245.
As to RRIRFRPPRLPRPRPRPYGPPRP, the “shrunken log2 fold change” value was -0.266.
As for RRIRVRPPRLPRPRPRPERNPRP, the figure is -0.323; as for RRIRPRPPRLPRPRPRPDGPPRP, -0.101.
As for RRIRNRPPRLPRPRPRPHIGPRP, the “shrunken log2 fold change” value is -0.0161.

The values are drawn from the supplement of paper PMC9112550, “Optimization of the antimicrobial peptide Bac7 by deep mutational scanning” (BMC Biology, 2022).
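Also: peptides expressed intracellularly from a pBAD plasmid library in pooled LB shake-flask culture, induced with 0.3% L-arabinose, DNA abundance read by NGS, three biological replicates, DESeq2 with apeglm shrinkage.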
